This data set has as its target T1, SAN1 D90A (catalytically inactive) (mouse or human ( for the …, UniProt Q6RI63 1-786, D90A)).
T1 sequence: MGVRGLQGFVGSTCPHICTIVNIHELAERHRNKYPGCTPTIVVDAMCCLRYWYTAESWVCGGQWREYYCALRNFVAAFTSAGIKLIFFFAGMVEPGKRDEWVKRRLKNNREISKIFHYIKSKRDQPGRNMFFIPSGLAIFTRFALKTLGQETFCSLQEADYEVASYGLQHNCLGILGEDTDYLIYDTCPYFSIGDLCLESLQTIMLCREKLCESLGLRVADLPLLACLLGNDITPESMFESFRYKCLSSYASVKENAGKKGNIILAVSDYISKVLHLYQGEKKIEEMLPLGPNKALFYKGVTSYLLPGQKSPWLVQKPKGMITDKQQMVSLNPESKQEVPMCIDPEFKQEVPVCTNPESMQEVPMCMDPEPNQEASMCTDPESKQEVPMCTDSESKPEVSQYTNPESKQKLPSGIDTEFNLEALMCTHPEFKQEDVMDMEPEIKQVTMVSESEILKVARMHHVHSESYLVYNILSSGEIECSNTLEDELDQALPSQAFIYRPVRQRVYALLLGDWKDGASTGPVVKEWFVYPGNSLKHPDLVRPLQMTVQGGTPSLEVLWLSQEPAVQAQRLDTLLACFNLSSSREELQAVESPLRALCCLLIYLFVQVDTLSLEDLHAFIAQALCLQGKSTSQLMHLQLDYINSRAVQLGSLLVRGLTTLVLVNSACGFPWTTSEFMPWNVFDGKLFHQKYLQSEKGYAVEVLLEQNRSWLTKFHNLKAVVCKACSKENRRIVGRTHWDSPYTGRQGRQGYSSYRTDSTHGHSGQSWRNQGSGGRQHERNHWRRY
Briefly: EMSA; 5 mM Mg2+; protein 0, 1, 5, 10, 20 nM; DNA 1 nM; EMSA: 20 mM HEPES pH 7.4, 0.1% NP-40, 0.1 M KCl, 5 mM MgCl2, 1% glycerol, 0.25 ug/uL BSA, 1 mM DTT, 30 min, room temperature; 5% native gel, 0.5x TBE. The conditions noted are these: protein: recombinant; tags: Strep-tag II (murine, C-terminal) or Strep-FLAG (human); label: 5' 32P; single strand 50 nt.

The results in this text go back to paper PMC6030175, “A senataxin-associated exonuclease SAN1 is required for resistance to DNA interstrand cross-links”.

Take AACGTCATAGACGATTACATTGCTAGGACATCTTTGCCCACGTTGACCCA (ssDNA) [X4]: the binding result is “binds”.
